Results from patent publication US11857697B2, “Compositions and methods for obtaining 3-dimensional lung-like epithelium and related uses thereof” (THE REGENTS OF THE UNIVERSITY OF MICHIGAN, priority 2017, dated 2024).
“Also recorded” adds a separate entry of the source.

Key:
[1] = test system: 12 week human fetal distal epithelial lung buds; experiment: Isolated human fetal lung bud culture in Matrigel: growth/expansion; format: cell-based; settings: FGF7 alone, 2, 4 and 6 weeks in culture
From the text: All research utilizing human fetal tissue was approved by the University of Michigan institutional review board. Normal human fetal lungs were obtained from the University of Washington Laboratory of Developmental Biology, and epithelial lung buds were dissected as described below. All experiments were repeated using tissues from 3 individual lungs; 84 day post fertilization of unknown gender, 87 day post fertilization male, and 87 day post fertilization of unknown gender. All tissues were shipped in Belzer's solution at 4 degrees Celsius and were processed and in culture within 24 hours of isolation.
(§1) Isolated mouse buds were cultured in 4-6 μl droplets of matrigel, covered with media, and kept at 37 degrees Celsius with 5% Carbon Dioxide. Isolated human fetal lung buds were cultured in 25-50 μl droplets of matrigel, covered with media, and kept at 37 degrees Celsius with 5% Carbon Dioxide.
Distal regions of 12 week fetal lungs were cut into ˜2 mm sections and incubated with dispase, 100% FBS and then 10% FBS as described above, and moved to a sterile petri dish. Mesenchyme was removed by repeated pipetting of distal lung pieces after dispase treatment. Buds were washed with DMEM until mesenchymal cells were no longer visible in the media. Buds were then moved to a 1.5 mL eppendorf tube containing 200 uL of Matrigel, mixed using a p200 pipette, and plated in ˜20 uL droplets in a 24 well tissue culture plate. Plates were placed at 37 degrees Celsius with 5% CO2 for 20 minutes while droplets solidified. 500 uL of media was added to each well containing a droplet. Media was changed every 2-3 days.
All mouse bud, human fetal bud, and hPSC-derived human lung organoids were grown in low-serum basal media (basal media) with added growth factors. […]

[2] = test system: E13.5 mouse distal epithelial lung buds; experiment: Isolated E13.5 mouse distal lung bud culture in Matrigel droplet: growth/expansion; format: cell-based
Protocol: as §1
Mouse buds were dissected from E13.5 embryos. For experiments using Sox9CreER; Rosa^Tomato/Tomato mice, 50 ug/g of tamoxifen was dissolved in corn oil and given by oral gavage on E12.5, 24 hours prior to dissection. Briefly, in sterile environment, whole lungs were placed in 100% dispase (Corning Cat#354235) on ice for 30 minutes. Lungs were then transferred using a 25 uL wiretrol tool (Drummond Scientific Cat#S5-000-2050) to 100% FBS (Corning Cat#35-010-CV) on ice for 15 minutes, and then transferred to a solution of Dulbecco's Modified Eagle Medium: Nutrient Mixture F12 (DMEM/F12, ThermoFisher SKU#12634-010) with 10% FBS and 1× Pennicillin-Streptomycin (ThermoFisher Cat#15140122) on ice. To dissect buds, a single lung or lung lobe was transferred by wiretrol within a droplet of media to a 100 mm sterile petri dish. Under a dissecting microscope, the mesenchyme was carefully removed and epithelial bud tips were torn away from the bronchial tree using tungsten needles (Point Technologies, Inc.). Care was taken to remove the trachea and any connective tissue from dissected lungs. Isolated bud tips were picked up using a p20 pipette and added to an eppendorf tube with cold Matrigel (Corning Ref#354248) on ice. The buds were picked up in a p20 pipette with 4-6 uL of Matrigel and plated on a 24-well tissue culture well (ThermoFisher Cat#142475). The plate was moved to a tissue culture incubator and incubated for 5 minutes at 37 degrees Celsius and 5% CO2 to allow the Matrigel droplet to solidify. 500 uL of media was then added to the dish in a laminar flow hood. Media was changed every 2-3 days.
All mouse bud, human fetal bud, and hPSC-derived human lung organoids were grown in low-serum basal media (basal media) with added growth factors. Basal media consisted of Dulbecco's Modified Eagle Medium: Nutrient Mixture F12 (DMEM/F12, ThermoFisher SKU#12634-010) supplemented with 1× N2 supplement (ThermoFisher Catalog#17502048) and […] B27 supplement (ThermoFisher Catalog#17504044), along with 2 mM Glutamax (ThermoFisher Catalog#35050061), 1× Pennicillin-Streptomycin (ThermoFisher Cat#15140122) and 0.05% Bovine Serum Albumin (BSA; Sigma product# A9647). BSA was weighed and dissolved in DMEM F/12 media before being passed through a SteriFlip 0.22 uM filter (Millipore Item# EW-29969-24) and being added to basal media. Media was stored at 4 degrees Celsius for up to 1 month. On the day of use, basal media was aliquoted and 50 ug/mL Ascorbic acid and 0.4 uM Monothioglycerol was added. […]

B1: Recombinant Human Fibroblast Growth Factor 7 (protein, UniProt P21781 32-194, looked up)
Fibroblast growth factor 7: CNDMTPEQMATNVNCSSPERHTRSYDYMEGGDIRVRRLFCRTQWYLRIDKRGKVKGTQEMKNNYNIMEIRTVAVGIVAIKGVESEFYLAMNKEGKLYAKKECNEDCNFKELILENHYNTYASAKWTHNGGEMFVALNQKGIPVRGKKTKKEQKTAHFLPMAIT
notes: Recombinant human growth factor from R&D systems, used at 10 ng/mL unless otherwise noted
What does the source list for B1?
Growth of human fetal lung buds in vitro [1]: robust growth in vitro after 2 and 4 weeks, but resulted in reduced growth after 6 weeks; also recorded: supported an initial expansion of buds, but the tissue stopped expanding beyond the 4 week period; Bud growth ([2]; FGF7 1 ng/mL, 3 and 5 days in vitro): very modest growth; Bud growth ([2]; FGF7, all other conditions above 1 ng/mL, 5 days in vitro): robust growth; Growth, expansion and survival of isolated buds ([2]; individual growth factor in basal media, FGF7 10 ng/mL, up to two weeks): promoted growth, expansion a survival of isolated buds for up to two weeks
